Source: US20080311034A1 (published 2008)

T1: recombinant human FcγRIIb (R&D Systems #1875-CD-050) (human, UniProt P31994 46-217, limits assumed)
T1 construct: Bought; also called CD32b; recombinant, soluble, human FcγRIIb
T1 sequence (looked up): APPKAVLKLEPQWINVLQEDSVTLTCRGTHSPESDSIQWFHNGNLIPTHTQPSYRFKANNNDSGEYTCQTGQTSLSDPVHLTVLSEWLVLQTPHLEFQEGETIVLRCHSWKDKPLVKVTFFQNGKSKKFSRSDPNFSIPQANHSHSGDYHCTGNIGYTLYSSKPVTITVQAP

B1: CHO-CNTO 860 WT (antibody, human IgG1, kappa)
heavy: not shown
light: DIQMTQSPSSLSASVGDRVTITCKASQDIRKYLNWYQQKPGKAPKLLIYYATSLADGVPSRFSGSGSGTDYTFTISSLQPEDIATYYCLQHGESPYTFGQGTKLEITRTVAAPSVFIFPPSDEQLKSGTASVVCLLNNFYPREAKVQWKVDNALQSGNSQESVTEQDSKDSTYSLSSTLTLSKADYEKHKVYACEVTHQGLSSPVTKSFNRGEC
modifications: N-linked glycan at heavy chain Asn297 (CHO-type, highly fucosylated); not carried by the letters
notes: Anti-human tissue factor human IgG1/kappa; transiently expressed in CHO cells (plasmids p4145/p4146; CHO Abs typically 95% fucosylated), purified by protein A; also called CNTO 860 WT from CHO cells; WT (CHO cell-derived); copies: 2 + 2
B2: YB2/0-CNTO 860 WT (antibody, human IgG1, kappa)
heavy: not shown
light: B1 light
modifications: Heavy chain N297 carries the YB2/0-type N-linked glycan (40-60% fucosylated); not carried by the letters.
notes: Anti-human tissue factor human IgG1/kappa; stably expressed in rat YB2/0 cells (p2401/p2402; YB2/0 Abs typically 40-60% fucosylated), purified by protein A; also called WT (YB2/0 cell-derived); WT from YB2/0 cells; copies: 2 + 2
B3: YB2/0-CNTO 860 I332E (antibody, human IgG1, kappa)
heavy: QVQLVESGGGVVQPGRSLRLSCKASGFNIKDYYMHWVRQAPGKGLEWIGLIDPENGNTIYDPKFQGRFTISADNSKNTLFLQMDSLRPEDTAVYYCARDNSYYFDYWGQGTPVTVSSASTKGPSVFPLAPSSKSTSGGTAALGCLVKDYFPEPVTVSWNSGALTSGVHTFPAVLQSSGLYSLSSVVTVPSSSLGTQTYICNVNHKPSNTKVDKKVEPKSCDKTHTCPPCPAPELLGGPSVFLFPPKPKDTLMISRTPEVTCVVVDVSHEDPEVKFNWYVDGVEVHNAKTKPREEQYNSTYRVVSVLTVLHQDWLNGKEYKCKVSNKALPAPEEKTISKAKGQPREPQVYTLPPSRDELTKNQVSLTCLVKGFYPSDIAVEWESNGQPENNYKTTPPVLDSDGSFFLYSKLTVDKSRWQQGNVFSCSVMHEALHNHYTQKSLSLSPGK
light: B1 light
modifications: Heavy chain N297 carries the YB2/0-type low-fucose N-linked glycan; not carried by the letters.
notes: IgG1/kappa Fc variant; stably expressed in YB2/0 cells (p4148/p2402), low-fucose glycan; EU numbering; also called I332E (YB2/0 cell-derived); I332E from YB2/0 cells; copies: 2 + 2
B4: CHO-CNTO 860 I332E/S239D (antibody, human IgG1, kappa)
heavy: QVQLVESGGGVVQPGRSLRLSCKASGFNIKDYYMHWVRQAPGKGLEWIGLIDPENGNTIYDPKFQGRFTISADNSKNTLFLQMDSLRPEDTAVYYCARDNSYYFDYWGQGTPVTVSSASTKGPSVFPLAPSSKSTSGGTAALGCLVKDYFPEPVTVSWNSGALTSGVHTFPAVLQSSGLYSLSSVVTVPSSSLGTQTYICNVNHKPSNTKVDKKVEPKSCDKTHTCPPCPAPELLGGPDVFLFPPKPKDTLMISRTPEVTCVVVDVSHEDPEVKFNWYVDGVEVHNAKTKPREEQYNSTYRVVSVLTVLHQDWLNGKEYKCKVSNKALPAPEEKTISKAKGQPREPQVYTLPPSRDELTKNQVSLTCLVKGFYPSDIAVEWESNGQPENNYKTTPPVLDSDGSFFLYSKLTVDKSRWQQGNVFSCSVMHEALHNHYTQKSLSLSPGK
light: B1 light
modifications: Heavy chain N297 carries the CHO-type N-linked glycan (about 95% fucosylated); not carried by the letters.
notes: IgG1/kappa Fc variant; transiently expressed in CHO cells (p4186/p4146); EU numbering; also called S239D/I332E (CHO cell-derived); copies: 2 + 2
B5: YB2/0-CNTO 860 A330I/I332E (antibody, human IgG1, kappa)
heavy: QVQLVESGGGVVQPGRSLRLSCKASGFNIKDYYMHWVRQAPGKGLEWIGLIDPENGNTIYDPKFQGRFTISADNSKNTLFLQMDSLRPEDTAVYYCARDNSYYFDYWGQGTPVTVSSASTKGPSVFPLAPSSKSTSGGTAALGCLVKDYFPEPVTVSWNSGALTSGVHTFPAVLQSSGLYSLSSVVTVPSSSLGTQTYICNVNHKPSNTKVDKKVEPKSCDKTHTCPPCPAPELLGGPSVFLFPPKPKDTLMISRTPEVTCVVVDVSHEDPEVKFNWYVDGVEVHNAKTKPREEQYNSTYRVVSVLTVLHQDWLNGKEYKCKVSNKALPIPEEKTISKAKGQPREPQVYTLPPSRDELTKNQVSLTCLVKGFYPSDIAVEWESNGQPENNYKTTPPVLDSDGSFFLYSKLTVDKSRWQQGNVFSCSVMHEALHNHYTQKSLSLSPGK
light: B1 light
modifications: N-linked glycan at heavy chain Asn297 (YB2/0-type, low fucose); not carried by the letters
notes: IgG1/kappa Fc variant; stably expressed in YB2/0 cells (p4178/p2402); EU numbering; also called A330I/I332E (YB2/0 cell-derived); A330I/I332E from YB2/0 cells; copies: 2 + 2
B6: YB2/0-CNTO 860 A330Y (antibody, human IgG1, kappa)
heavy: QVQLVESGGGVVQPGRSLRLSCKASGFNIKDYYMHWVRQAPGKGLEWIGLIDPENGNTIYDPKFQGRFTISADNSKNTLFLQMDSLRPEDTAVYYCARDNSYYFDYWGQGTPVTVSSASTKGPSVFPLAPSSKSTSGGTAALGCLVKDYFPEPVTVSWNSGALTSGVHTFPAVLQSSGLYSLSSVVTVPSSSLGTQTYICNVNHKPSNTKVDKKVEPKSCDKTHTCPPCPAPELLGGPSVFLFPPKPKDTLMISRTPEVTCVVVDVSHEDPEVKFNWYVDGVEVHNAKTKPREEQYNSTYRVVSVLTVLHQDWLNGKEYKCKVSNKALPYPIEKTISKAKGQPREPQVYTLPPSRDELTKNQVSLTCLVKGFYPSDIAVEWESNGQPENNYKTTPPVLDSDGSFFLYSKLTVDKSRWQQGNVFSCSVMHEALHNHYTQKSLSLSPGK
light: B1 light
modifications: N-linked glycan at heavy chain Asn297 (YB2/0-type, low fucose); not carried by the letters
notes: IgG1/kappa Fc variant; stably expressed in YB2/0 cells (p4176/p2402); EU numbering; also called A330Y (YB2/0 cell-derived); copies: 2 + 2
B7: CHO-CNTO 860 A330I (antibody, IgG1)
heavy: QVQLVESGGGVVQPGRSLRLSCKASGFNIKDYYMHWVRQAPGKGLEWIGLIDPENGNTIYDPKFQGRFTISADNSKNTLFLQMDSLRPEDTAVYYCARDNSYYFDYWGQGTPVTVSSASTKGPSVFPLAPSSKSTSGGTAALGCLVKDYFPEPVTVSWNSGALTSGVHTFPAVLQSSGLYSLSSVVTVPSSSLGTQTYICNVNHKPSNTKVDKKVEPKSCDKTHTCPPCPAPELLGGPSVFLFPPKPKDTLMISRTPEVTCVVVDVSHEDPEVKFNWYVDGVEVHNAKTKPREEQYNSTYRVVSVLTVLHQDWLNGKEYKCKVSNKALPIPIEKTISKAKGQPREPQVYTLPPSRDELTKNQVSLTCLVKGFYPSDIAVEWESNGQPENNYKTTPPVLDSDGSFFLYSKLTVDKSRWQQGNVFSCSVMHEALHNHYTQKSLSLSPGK
light: B1 light
modifications: N-linked glycan at Asn297 of the heavy chain (CHO-type, highly fucosylated); not carried by the letters
notes: IgG1/kappa Fc variant; EU numbering; also called A330I (CHO cell-derived); copies: 2 + 2
B8: CHO-CNTO 860 A330Y (antibody, human IgG1, kappa)
heavy: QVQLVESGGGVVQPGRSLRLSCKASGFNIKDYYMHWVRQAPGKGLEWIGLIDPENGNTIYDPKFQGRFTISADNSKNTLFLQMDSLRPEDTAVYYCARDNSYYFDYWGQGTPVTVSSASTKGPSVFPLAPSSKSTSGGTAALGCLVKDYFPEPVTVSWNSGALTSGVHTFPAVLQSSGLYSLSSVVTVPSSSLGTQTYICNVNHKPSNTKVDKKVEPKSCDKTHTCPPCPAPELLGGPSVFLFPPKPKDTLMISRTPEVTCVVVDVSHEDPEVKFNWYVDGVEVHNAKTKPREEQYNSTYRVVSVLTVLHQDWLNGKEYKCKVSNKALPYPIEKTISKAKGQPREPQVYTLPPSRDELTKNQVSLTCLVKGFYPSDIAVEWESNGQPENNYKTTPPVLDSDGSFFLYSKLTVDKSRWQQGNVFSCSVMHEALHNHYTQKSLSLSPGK
light: B1 light
modifications: N-linked glycan at Asn297 of the heavy chain (CHO-type, highly fucosylated); not carried by the letters
notes: IgG1/kappa Fc variant; transiently expressed in CHO cells (p4183/p4146); EU numbering; also called A330Y (CHO cell-derived); copies: 2 + 2
B9: YB2/0-CNTO 860 V264I/I332E (antibody, human IgG1, kappa)
heavy: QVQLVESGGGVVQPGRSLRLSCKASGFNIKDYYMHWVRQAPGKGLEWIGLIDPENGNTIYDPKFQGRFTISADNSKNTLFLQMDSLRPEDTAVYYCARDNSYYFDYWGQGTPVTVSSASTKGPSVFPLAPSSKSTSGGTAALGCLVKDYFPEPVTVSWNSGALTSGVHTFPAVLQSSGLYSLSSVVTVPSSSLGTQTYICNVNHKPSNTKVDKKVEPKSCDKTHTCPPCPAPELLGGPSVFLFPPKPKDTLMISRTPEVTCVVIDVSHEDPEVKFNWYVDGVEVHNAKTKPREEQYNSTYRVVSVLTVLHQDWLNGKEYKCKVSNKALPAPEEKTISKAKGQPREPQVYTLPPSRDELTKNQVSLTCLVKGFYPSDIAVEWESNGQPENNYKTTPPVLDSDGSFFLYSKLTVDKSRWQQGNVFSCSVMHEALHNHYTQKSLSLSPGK
light: B1 light
modifications: N-linked glycan at heavy chain Asn297 (YB2/0-type, low fucose); not carried by the letters
notes: IgG1/kappa Fc variant; stably expressed in YB2/0 cells (p4180/p2402); EU numbering; also called V264I/I332E (YB2/0 cell-derived); copies: 2 + 2
B10: CHO-CNTO 860 I332E/A330I (antibody, human IgG1, kappa)
heavy: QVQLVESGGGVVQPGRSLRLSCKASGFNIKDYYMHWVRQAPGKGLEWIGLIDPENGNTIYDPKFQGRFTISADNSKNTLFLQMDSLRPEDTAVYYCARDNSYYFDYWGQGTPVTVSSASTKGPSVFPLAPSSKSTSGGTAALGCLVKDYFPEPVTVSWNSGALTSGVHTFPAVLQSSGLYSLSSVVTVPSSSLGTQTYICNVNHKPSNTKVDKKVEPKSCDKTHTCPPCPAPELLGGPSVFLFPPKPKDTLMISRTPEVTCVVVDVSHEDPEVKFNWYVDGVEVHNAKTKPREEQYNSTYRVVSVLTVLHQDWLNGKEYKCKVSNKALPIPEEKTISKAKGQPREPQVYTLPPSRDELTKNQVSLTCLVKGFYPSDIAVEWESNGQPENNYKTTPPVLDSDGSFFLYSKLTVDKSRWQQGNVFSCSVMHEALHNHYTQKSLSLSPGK
light: B1 light
modifications: Heavy chain N297 carries the CHO-type N-linked glycan (about 95% fucosylated); not carried by the letters.
notes: IgG1/kappa Fc variant; transiently expressed in CHO cells (p4185/p4146); EU numbering; also called A330I/I332E (CHO cell-derived); A330I/I332E variant from CHO cells; copies: 2 + 2
B11: YB2/0-CNTO 860 S239D/I332E (antibody, human IgG1, kappa)
heavy: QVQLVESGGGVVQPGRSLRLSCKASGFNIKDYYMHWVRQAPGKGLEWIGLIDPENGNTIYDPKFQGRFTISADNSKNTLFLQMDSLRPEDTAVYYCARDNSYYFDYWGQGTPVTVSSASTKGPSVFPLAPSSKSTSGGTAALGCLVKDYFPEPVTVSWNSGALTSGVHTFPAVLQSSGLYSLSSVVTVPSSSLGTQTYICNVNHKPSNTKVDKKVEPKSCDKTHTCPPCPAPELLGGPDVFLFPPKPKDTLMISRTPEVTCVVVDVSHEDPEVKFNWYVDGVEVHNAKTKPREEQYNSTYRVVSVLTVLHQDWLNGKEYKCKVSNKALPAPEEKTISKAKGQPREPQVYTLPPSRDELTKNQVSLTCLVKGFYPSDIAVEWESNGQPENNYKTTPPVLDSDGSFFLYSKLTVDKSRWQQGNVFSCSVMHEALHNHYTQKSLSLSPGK
light: B1 light
modifications: N-linked glycan at heavy chain Asn297 (YB2/0-type, low fucose); not carried by the letters
notes: IgG1/kappa Fc variant; stably expressed in YB2/0 cells (p4179/p2402); EU numbering; also called S239D/I332E (YB2/0 cell-derived); copies: 2 + 2
B12: YB2/0-CNTO 860 A330I (antibody, IgG1)
heavy: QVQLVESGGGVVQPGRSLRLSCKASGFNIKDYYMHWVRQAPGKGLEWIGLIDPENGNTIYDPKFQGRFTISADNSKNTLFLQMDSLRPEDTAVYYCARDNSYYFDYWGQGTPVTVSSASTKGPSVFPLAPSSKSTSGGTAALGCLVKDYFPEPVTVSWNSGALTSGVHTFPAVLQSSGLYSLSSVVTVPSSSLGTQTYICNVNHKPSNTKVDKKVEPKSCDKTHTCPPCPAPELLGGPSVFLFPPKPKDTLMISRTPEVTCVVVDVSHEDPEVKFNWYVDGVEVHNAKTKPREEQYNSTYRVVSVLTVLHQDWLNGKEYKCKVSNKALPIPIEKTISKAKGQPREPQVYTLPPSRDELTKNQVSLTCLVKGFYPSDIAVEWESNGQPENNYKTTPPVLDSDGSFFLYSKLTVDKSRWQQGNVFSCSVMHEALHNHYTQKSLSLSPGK
light: B1 light
modifications: N-linked glycan at heavy chain Asn297 (YB2/0-type, low fucose); not carried by the letters
notes: IgG1/kappa Fc variant; stably expressed in YB2/0 cells (p4177/p2402); EU numbering; also called A330I (YB2/0 cell-derived); A330I mutant expressed in YB2/0 cells; copies: 2 + 2
B13: CHO-CNTO 860 I332E (antibody)
heavy: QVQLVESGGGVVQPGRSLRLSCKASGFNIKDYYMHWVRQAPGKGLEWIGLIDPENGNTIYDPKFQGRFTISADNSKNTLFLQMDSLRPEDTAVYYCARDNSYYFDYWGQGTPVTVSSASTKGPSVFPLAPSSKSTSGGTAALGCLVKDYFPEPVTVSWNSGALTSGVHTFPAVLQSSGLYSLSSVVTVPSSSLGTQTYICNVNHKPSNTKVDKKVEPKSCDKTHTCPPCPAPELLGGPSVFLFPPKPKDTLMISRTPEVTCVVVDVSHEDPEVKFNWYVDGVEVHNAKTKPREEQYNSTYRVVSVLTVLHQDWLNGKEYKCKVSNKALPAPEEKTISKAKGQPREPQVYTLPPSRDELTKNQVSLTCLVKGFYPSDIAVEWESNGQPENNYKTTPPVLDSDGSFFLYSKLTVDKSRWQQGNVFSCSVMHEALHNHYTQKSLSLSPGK
light: B1 light
modifications: N-linked glycan at Asn297 of the heavy chain (CHO-type, highly fucosylated); not carried by the letters
notes: IgG1/kappa Fc variant; transiently expressed in CHO cells (p4157/p4146); also called I332E (CHO cell-derived); I332E from CHO cells; copies: 2 + 2

How the values were obtained:
[1] = molecular target: T2, recombinant human His-tagged FcγRI (extracellular domain, R&D Systems #1257-FC-050) (human, UniProt P12314 16-292); test: ELISA, His-tagged FcγRI captured on HisGrab plate
T2 construct: extracellular domain; Bought; also called CD64; recombinant, soluble, human FcγRI
T2 sequence (P12314 16-292): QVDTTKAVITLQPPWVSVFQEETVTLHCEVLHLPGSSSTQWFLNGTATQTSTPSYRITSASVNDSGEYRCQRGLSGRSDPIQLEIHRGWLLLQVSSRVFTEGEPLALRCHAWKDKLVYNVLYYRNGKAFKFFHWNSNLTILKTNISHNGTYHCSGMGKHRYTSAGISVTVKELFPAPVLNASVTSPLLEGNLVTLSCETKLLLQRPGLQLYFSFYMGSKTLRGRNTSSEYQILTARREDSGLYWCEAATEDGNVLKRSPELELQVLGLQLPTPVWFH
Experimental: FcγRI (CD64) ELISA —50 μl of a 1 μg/ml solution of recombinant human His-tagged FcγRI (extracellular domain, R&D Systems #1257-FC-050) in ELISA buffer (PBS, pH 7.4, 4 mg/ml BSA, 0.01% Tween-20) was added to each well of HisGrab 96 well plates (Pierce #15142) (Powers G., Notebook 9006, pp. 166-168, 180-181). The plate was incubated with shaking for 3 hours. The plates were washed 3× with 300 μl of wash buffer (PBS, 0.01% Tween-20) on a plate washer. Serial dilutions of the CNTO860 antibody Fc-variant samples were made in ELISA buffer and 50 μl per well of each titration were added in duplicate to the FcγRI-coated plates. The plates were incubated with shaking for 1 hour. The plates were washed 3× with 300 μl of wash buffer on a plate washer. 50 μl of a 1:10,000 dilution of HRP-labeled goat F(ab′)₂ anti-human IgG F(ab′)₂ (Jackson Immunoresearch # 109-036-097) in ELISA buffer was added to each well. The plates were incubated with shaking for 30 minutes. The plates were washed 3× with 300 μl of wash buffer on the plate washer. 50 μl per well TMB substrate (RDI #RDI-TMBSU-1L) was added to each well and developed for 5 minutes. The reaction was stopped by adding 100 μl 0.2 N sulfuric acid. The plates were read at OD450 on an Envision plate reader.

[2] = molecular target: T3, recombinant human His-tagged FcγRIIIa (extracellular domain made at Centocor) (human, UniProt P08637 17-208); test: ELISA, His-tagged FcγRIIIa captured on HisGrab plate
T3 construct: extracellular domain; also called CD16a; recombinant, soluble, human FcγRIIIa
T3 sequence (P08637 17-208): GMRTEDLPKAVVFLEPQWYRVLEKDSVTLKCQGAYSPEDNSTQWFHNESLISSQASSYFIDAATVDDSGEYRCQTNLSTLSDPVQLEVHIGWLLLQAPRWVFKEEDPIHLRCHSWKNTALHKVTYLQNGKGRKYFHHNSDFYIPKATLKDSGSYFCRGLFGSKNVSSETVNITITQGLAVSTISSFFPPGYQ
Experimental: FcγRIIIa (CD16a) ELISA—A human FcγRIIIa binding assay was done in ELISA format similar to the assay for FcγRI above. 50 μl of a 2 μg/ml solution of recombinant human His-tagged FcγRIIIa (extracellular domain made at Centocor) in ELISA buffer (PBS, 4 mg/ml BSA, 0.01% Tween-20) was added to each well of HisGrab 96 well plates (Pierce #15142) (Powers G., Notebook 10378, 19-23). The plate was incubated for 3 hours at room temp. The plates were blocked with 200 μl of Starting Block (Pierce #15142) for 30 min, and then washed 3× with 300 μl of wash buffer (PBS, 0.01% Tween-20) on a plate washer. Serial dilutions of the CNTO 860 test samples were made in Starting Block buffer and 50 μl per well of each titration were added in duplicate to the FcγRIIIa-coated plates. The plates were incubated for 1 hour. The plates were washed 3× with 300 μl of wash buffer on a plate washer. 50 μl of a 1:10,000 dilution of HRP-labeled goat F(ab′)2 anti-human IgG F(ab′)2 (Jackson Immunoresearch # 109-036-097) in Starting Block buffer was added to each well. The plates were incubated for 30 minutes. The plates were washed 3× with 300 μl of wash buffer on the plate washer. 50 μl per well TMB substrate (RDI #RDI-TMBSU-1L) was added to each well and developed for 3-5 minutes. The reaction was stopped by adding 100 μl […] sulfuric acid. The plates were read at OD450 on an Envision plate reader. Antibody concentration vs OD450 values were graphed for each CNTO 860 variant and the antibody concentration needed to achieve an OD450 reading of 0.14 established by interpolation within each data curve.

[3] = molecular target: T1, recombinant human FcγRIIb (R&D Systems …); test: AlphaScreen, FcγRIIb on nickel acceptor beads
Experimental: FcγRIIa (CD32a) AlphaScreen—Nickel acceptor beads (Perkin Elmer #6760619C) were diluted 1:50 in assay buffer (PBS, pH 7.4, 4 mg/ml BSA, 0.01% Tween-20), and 27.5 μl were added to each well of a Nunc V-bottom polypropylene plate (VWR # 62409-108) (Powers G., Notebook 9006, pp. 169-175, 182-185). A 2.0 μg/ml solution of recombinant human His-tagged FcγRIIa (R&D Systems #1330-CD-050) was prepared in assay buffer and 27.5 μl added to each well of a separate Nunc V bottom polypropylene plate. Titrations of test Abs were prepared in the Nunc V bottom polypropylene plate starting at 30 μg/ml. A 2 μg/ml solution of biotinylated goat F(ab′)₂ anti-human IgG F(ab′)₂ (Jackson Immunoresearch #109-066-097) was prepared in assay buffer and 27.5 μl added to each well of another Nunc V bottom polypropylene plate. A 1:50 dilution of streptavidin donor beads (PerkinElmer # 6760002) was prepared in assay buffer and 27.5 μl added to each well of another Nunc V bottom polypropylene plate. A volume of 5 μl of each reagent was added to the corresponding quadrants of a low-volume, non-binding white 384-well plate (Corning # 3673) in the following order: acceptor beads, FcγRIIa, test Ab, biotinylated anti-human IgG F(ab′)₂, and streptavidin donor beads. The plates were incubated for 30 minutes with shaking and the O.D.s determined using an Envision plate reader.
FcγRIIb (CD32b) AlphaScreen—The assay was performed as described above for FcγRIIa except that FcγRIIa was replaced with FcγRIIb (R&D Systems #1875-CD-050).

[4] = molecular target: FcγRIIIa on NK cells of human PBMC (human, UniProt P08637 17-254); test: cell-based or functional assay
Chain of FcγRIIIa on NK cells of human PBMC (P08637 17-254): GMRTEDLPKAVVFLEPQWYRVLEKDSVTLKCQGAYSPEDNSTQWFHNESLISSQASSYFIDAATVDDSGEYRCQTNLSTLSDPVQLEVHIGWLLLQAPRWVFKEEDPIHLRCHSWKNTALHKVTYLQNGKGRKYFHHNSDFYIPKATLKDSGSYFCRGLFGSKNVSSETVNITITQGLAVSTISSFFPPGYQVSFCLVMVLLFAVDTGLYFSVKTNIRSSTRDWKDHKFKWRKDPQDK

Row | Binder | concentration (ng/ml) required for an O.D. value of 1.0 [1] [ng/mL] | concentration (ng/ml) required for an O.D. value of 0.14 [2] [ng/mL] | concentration (ng/ml) required for an O.D. value of 200,000 [3] [ng/mL] | EC25 (ng/ml), ADCC of HCT116 cells by human PBMC [4] [ng/mL]
1 | B1 | 480 | 4500 | 165 | –
2 | B2 | 420 | 1500 | 120 | –
3 | B3 | 300 | 165 | 75 | 0.3
4 | B4 | 480 | 600 | 27 | 0.7
5 | B5 | 310 | 240 | 10500 | 0.15
6 | B6 | 420 | 340 | 165 | 0.4
7 | B7 | 750 | 19000 | 75000 | –
8 | B8 | 420 | 3300 | 280 | 4
9 | B9 | 480 | 165 | 60 | 0.12
10 | B10 | 420 | 520 | 4500 | 1.2
11 | B11 | 300 | 120 | 20 | 0.2
12 | B12 | 570 | 1200 | 37000 | 0.7
13 | B13 | 300 | 750 | 105 | 0.75
